Common to all, as to assay: fluorescence polarisation; 37 °C, after the 25 °C reading ramped over 7 min to 37 °C and 2 min incubation; unlabeled Rb^P against 1.5 nM TMR-E2F1^TD or 7.5 nM TMR-E7^LxCxE; 25 mM Tris pH 8.0, 200 mM NaCl, 1 mM DTT, 0.1% Tween-20; apparent Kd
Conditions in all cases: both partners purified

In test [1] the target is T1, Rb^P R621P (human, UniProt P06400 380-788, R621P).
T1 construct: also called variant 43
T1 sequence (looked up): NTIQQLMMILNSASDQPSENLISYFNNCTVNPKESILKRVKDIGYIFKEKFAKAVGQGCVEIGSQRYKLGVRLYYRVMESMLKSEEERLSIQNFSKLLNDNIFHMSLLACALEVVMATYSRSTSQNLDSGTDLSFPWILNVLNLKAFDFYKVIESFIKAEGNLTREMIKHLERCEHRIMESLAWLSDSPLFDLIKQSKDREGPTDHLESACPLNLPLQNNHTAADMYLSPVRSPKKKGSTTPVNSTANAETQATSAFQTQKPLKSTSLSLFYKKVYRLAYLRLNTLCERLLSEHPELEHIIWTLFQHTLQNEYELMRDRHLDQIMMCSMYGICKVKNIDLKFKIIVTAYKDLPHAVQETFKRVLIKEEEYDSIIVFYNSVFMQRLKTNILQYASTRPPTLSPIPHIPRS

Test [2] has as its target T2, Rb^P Q504E (human, UniProt P06400 380-788, Q504E).
T2 construct: also called variant 19
T2 sequence (looked up): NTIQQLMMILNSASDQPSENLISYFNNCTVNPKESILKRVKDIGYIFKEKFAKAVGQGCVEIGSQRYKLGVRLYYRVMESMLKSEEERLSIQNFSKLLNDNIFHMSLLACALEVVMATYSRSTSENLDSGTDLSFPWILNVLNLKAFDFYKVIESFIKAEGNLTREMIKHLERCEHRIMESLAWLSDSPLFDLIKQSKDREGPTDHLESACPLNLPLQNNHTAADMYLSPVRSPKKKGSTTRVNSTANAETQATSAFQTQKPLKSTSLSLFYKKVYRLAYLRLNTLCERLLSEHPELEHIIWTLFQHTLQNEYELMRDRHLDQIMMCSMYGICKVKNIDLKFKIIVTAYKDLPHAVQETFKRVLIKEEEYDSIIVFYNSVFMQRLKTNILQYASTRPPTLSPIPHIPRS

Test [3] concerns the target T3, Rb^P R763T (human, UniProt P06400 380-788, R763T).
T3 construct: also called variant 75
T3 sequence (looked up): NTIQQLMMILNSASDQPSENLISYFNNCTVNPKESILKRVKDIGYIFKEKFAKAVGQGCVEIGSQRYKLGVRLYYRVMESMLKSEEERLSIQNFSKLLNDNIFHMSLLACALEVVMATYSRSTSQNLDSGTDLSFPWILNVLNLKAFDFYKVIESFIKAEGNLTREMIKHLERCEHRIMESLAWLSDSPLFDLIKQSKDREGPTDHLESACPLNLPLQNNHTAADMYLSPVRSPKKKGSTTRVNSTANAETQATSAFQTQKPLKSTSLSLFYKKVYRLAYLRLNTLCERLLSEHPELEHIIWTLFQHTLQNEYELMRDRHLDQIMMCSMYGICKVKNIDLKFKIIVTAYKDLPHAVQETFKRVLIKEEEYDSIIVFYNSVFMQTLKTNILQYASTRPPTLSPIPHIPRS

Test [4] addresses T4, Rb^P S588F (human, UniProt P06400 380-788, S588F).
T4 construct: also called variant 34
T4 sequence (looked up): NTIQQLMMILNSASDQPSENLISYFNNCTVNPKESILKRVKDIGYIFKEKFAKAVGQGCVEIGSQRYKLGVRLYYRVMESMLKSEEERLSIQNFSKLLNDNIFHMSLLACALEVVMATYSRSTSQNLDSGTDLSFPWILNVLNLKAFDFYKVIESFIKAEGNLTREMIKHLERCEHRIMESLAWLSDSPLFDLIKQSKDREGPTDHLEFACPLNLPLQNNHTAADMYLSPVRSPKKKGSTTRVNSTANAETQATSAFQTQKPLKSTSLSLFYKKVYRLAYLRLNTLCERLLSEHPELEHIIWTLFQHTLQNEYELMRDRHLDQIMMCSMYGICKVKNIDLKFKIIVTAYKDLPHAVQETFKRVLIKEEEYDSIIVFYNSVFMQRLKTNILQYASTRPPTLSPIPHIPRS

In test [5] the target is T5, Rb^P S671F (human, UniProt P06400 380-788, S671F).
T5 construct: also called variant 53
T5 sequence (looked up): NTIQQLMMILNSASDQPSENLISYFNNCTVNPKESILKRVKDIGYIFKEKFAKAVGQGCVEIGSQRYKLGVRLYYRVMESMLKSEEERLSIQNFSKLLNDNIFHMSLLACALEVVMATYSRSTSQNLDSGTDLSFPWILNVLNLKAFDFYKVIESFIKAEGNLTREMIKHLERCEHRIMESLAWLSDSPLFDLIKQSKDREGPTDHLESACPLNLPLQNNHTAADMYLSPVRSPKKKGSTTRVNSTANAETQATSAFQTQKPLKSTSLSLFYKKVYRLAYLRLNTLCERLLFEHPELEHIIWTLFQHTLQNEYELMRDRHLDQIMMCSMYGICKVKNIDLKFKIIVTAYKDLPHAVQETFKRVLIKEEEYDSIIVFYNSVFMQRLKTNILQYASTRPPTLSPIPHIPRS

We go through 2 molecules from publication PMC11931385, “Structural and functional analysis of cancer-associated missense variants in the retinoblastoma protein pocket domain” (The Journal of Biological Chemistry, 2025).

No end group written: not given here. TMR = tetramethyl rhodamine dye

B1: TMR-E2F1^TD, peptide of the E2F1 transactivation domain (peptide)
peptide: {TMR}-GEGIRDLFDCDFGDLTPLD
notes: also called E2F^TD; source: synthetic peptide, bought: GenScript
With B1, the Kd is 83 nM in test [1]; 33 nM in test [2]; 59 nM in test [3]; 51 nM in test [4]; 46 nM in test [5].

B2: TMR-E7^LxCxE, LxCxE peptide of the E7 oncoprotein from HPV (peptide)
peptide: DLYCYEQLN
modifications: also: TMR label, position not given here
notes: source: synthetic peptide, bought: GenScript
On to B2, for which the Kd in test [1] is 32 nM; in test [2] it was 11 nM; in test [3], 35 nM; in test [4], 16 nM; in test [5] it was 19 nM.
